Measured values from the supplement of paper PMC5998384.

What was measured:
HeLa Kyoto [1] = assay: solubility in G1/S (NP-40 vs SDS abundance) (log2 ratio); higher = more soluble; conditions: cell cycle stage: G1/S
HeLa Kyoto [2] = assay: melting temperature (median over replicates), in situ; higher = more thermally stable
HeLa Kyoto [3] = assay: solubility change mitosis vs G1/S (difference of NP-40 vs SDS log2 ratios) (log2 ratio difference); higher = more soluble in mitosis
HeLa Kyoto [4] = assay: thermal stability score vs G1/S (z-score of summed log2 fold changes over temperatures); higher = more thermally stable than in G1/S
[5] = cell cycle stage: early G1 (4.5 h after nocodazole release)
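For melting temperature (median over replicates), in situ in this document: HeLa Kyoto cells synchronized by double thymidine or nocodazole block, proteins quantified by TMT10plex mass spectrometry, three independent biological replicates.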
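For solubility change mitosis vs G1/S (difference of NP-40 vs SDS log2 ratios) in this document: synchronized HeLa Kyoto cells (double thymidine block for G1/S, nocodazole release for mitosis), protein amounts in NP-40 versus SDS lysates quantified by mass spectrometry, three biological replicates.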
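For solubility in G1/S (NP-40 vs SDS abundance) in this document: HeLa Kyoto cells arrested at G1/S by double thymidine block, proteins quantified by TMT10plex mass spectrometry in mild NP-40 versus SDS extracts, three biological replicates.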
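For thermal stability score vs G1/S (z-score of summed log2 fold changes over temperatures) in this document: synchronized HeLa Kyoto cells, proteins quantified by TMT10plex mass spectrometry, three biological replicates, mitosis taken 0.5 h after nocodazole release, G1/S directly after double thymidine block.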

Sequence | solubility in G1/S (log2) (HeLa Kyoto [1]) | melting temperature (HeLa Kyoto [2]; cell cycle stage: G1/S) [°C] | melting temperature (HeLa Kyoto [2]; cell cycle stage: mitosis) [°C] | solubility change mitosis (log2) (HeLa Kyoto [3]) | thermal stability score (HeLa Kyoto [4]; [5]) | thermal stability score (HeLa Kyoto [4]; cell cycle stage: mitosis)
MEELIVELRLFLELLDHEYLTSTVREKKAVITNILLRIQSSKGFDVKDHAQKQETANSLPAPPQMPLPEIPQPWLPPDSGPPPLPTSSLPEGYYEEAVPLSPGKAPEYITSNYDSDAMSSSYESYDEEEEDGKGKKTRHQWPSEEASMDLVKDAKICAFLLRKKRFGQWTKLLCVIKDTKLLCYKSSKDQQPQMELPLQGCNITYIPKDSKKKKHELKITQQGTDPLVLAVQSKEQAEQWLKVIKEAYSGCSGPVDSECPPPPSSPVHKAELEKKLSSERPSSDGEGVVENGITTCNGKEQVKRKKSSKSEAKGTVSKVTGKKITKIISLGKKKPSTDEQTSSAEEDVPTCGYLNVLSNSRWRERWCRVKDNKLIFHKDRTDLKTHIVSIPLRGCEVIPGLDSKHPLTFRLLRNGQEVAVLEASSSEDMGRWIGILLAETGSSTDPEALHYDYIDVEMSASVIQTAKQTFCFMNRRVISANPYLGGTSNGYAHPSGTALHYDDVPCINGSLKGKKPPVASNGVTGKGKTLSSQPKKADPAAVVKRTGSNAAQYKYGKNRVEADAKRLQTKEEELLKRKEALRNRLAQLRKERKDLRAAIEVNAGRKPQAILEEKLKQLEEECRQKEAERVSLELELTEVKESLKKALAGGVTLGLAIEPKSGTSSPQSPVFRHRTLENSPISSCDTSDTEGPVPVNSAAVLKKSQAAPGSSPCRGHVLRKAKEWELKNGT [AFAP1] | -0.611 | 50.5 | 49.7 | 0.451 | -1.47 | -2.94
MEELLRRELGCSSVRATGHSGGGCISQGRSYDTDQGRVFVKVNPKAEARRMFEGEMASLTAILKTNTVKVPKPIKVLDAPGGGSVLVMEHMDMRHLSSHAAKLGAQLADLHLDNKKLGEMRLKEAGTVGRGGGQEERPFVARFGFDVVTCCGYLPQVNDWQEDWVVFYARQRIQPQMDMVEKESGDREALQLWSALQLKIPDLFRDLEIIPALLHGDLWGGNVAEDSSGPVIFDPASFYGHSEYELAIAGMFGGFSSSFYSAYHGKIPKAPGFEKRLQLYQLFHYLNHWNHFGSGYRGSSLNIMRNLVK [FN3KRP] | 0.12 | 61.1 | 58.3 | 0.00242 | -1.05 | -2.45
MEEMSGESVVSSAVPAAATRTTSFKGTSPSSKYVKLNVGGALYYTTMQTLTKQDTMLKAMFSGRMEVLTDSEGWILIDRCGKHFGTILNYLRDGAVPLPESRREIEELLAEAKYYLVQGLVEECQAALQNKDTYEPFCKVPVITSSKEEQKLIATSNKPAVKLLYNRSNNKYSYTSNSDDNMLKNIELFDKLSLRFNGRVLFIKDVIGDEICCWSFYGQGRKIAEVCCTSIVYATEKKQTKVEFPEARIYEETLNILLYEAQDGRGPDNALLEATGGAAGRSHHLDEDEERERIERVRRIHIKRPDDRAHLHQ [KCTD10] | -1.29 | – | 51.6 | 0.647 | 0.937 | 1.24
MEESPLSRAPSRGGVNFLNVARTYIPNTKVECHYTLPPGTMPSASDWIGIFKVEAACVRDYHTFVWSSVPESTTDGSPIHTSVQFQASYLPKPGAQLYQFRYVNRQGQVCGQSPPFQFREPRPMDELVTLEEADGGSDILLVVPKATVLQNQLDESQQERNDLMQLKLQLEGQVTELRSRVQELERALATARQEHTELMEQYKGISRSHGEITEERDILSRQQGDHVARILELEDDIQTISEKVLTKEVELDRLRDTVKALTREQEKLLGQLKEVQADKEQSEAELQVAQQENHHLNLDLKEAKSWQEEQSAQAQRLKDKVAQMKDTLGQAQQRVAELEPLKEQLRGAQELAASSQQKATLLGEELASAAAARDRTIAELHRSRLEVAEVNGRLAELGLHLKEEKCQWSKERAGLLQSVEAEKDKILKLSAEILRLEKAVQEERTQNQVFKTELAREKDSSLVQLSESKRELTELRSALRVLQKEKEQLQEEKQELLEYMRKLEARLEKVADEKWNEDATTEDEEAAVGLSCPAALTDSEDESPEDMRLPPYGLCERGDPGSSPAGPREASPLVVISQPAPISPHLSGPAEDSSSDSEAEDEKSVLMAAVQSGGEEANLLLPELGSAFYDMASGFTVGTLSETSTGGPATPTWKECPICKERFPAESDKDALEDHMDGHFFFSTQDPFTFE [CALCOCO1] | 0.13 | 50.2 | 50.3 | -0.128 | 0.0224 | 0.762
